Test results taken from patent publication EP4793288A1.

Molecular target: Recombinant HLA-G antigen (human) (UniProt P17693)
Experiment: monoclonal phage ELISA, Fab on phage, anti-M13 HRP (selection threshold)

Binder	absorbance (OD450)
T22A4 (Fab clone displayed on phage) (Fab, V domains shown) VH: EVQLVESGGNWVQPGGSLRLSCAASGFSFRSYAMSWVRQAPGKGLEWVSSISGSGNSELYAGSVKGRFTISRDNSKNTLSLQLHSLRAEDTAMYYCAKFSAAVGFLPDYFDSWGQGTLVTVSS VL: ELTLTQSPSSLSASVGDRVTITCQASHDISKYLNWYQQKSGKAPKLLIYDASNLETGVPSRFSGSGSGTDFTLTISSLQPEDFATYYCQQSYRTPLTFGGGTKLEIK	> 0.4 OD450
T23D5 (Fab clone displayed on phage) (Fab, V domains shown) VH: QVQLQESGPGLVKPSETLSLTCTVSGGSIDRSSHYWGWIRQPPGKGLEWLGSIYYSGITYYNPSLKSRVTISVDTSRNQFSLTLSSVTAADTAVYYCARHGSYDSWAGRYKWDRFDPWGQGTPVTVSS VL: ELQMTQSPSSLSASVGDRVTITCQASHDISKYLNWYQQKSGKAPKLLIYDASNLETGVPSRFSGSGSGTDFTLTISSLQPEDFATYYCQQSYSTPLTFGGGTKVEIK	> 0.4 OD450
